The target of assay [1] is T1, RAGE-Fc chimera protein (BioTechne, 1145-RG) (UniProt Q15109 24-344).
T1 construct: Bought reagent; also called Fc-RAGE; not shown: CH domain of IgG (Fc)
In words: BLI: RAGE-Fc on AHC sensors, HMGB1 construct 0-25 µM in solution; saturation fit. Here is the method: (§1) RAGE-Fc was immobilized in the surface of AHC sensors and dipped in rising concentration of different HMGB1 constructs. Two experiments were run with different concentration ranges: the three columns of graphs in the left, 0 to 22.22 μM HMGB1 over 9 steps; on the right, 0 to 25 μM over 7 steps. Both are color-coded by concentration (top). Colors indicate the specific construct concentration. Each graph corresponds to a single sensor (replicate).
(§2) Pre-hydrated streptavidin Octet Biosensors (FortéBio 18-5019) were coated with 4 μM solutions of biotinylated HMGB1 proteins in 10 mM HEPES, pH 7.5, 150 mM NaCl (Base buffer-BB) plus, 0.5 mM TCEP (60″ baseline, 60″ binding). Nonspecific binding was minimized by incubation for 3′ in BB+1% BSA+0.05% Tween-20 (Kinetics Buffer, KB) prior to kinetics assays. […] An OctetRed 384 instrument was used for these experiments. Kinetics data were extracted with DataAnalysis 9.0 (FortéBio). Response at equilibrium REq was plotted against concentration in a Michaelis-Menten saturation plot to calculate kD/Bₘₐₓ (saturation plot of concentration against rEq). Kinetic rates (association rate; kₒₙ and dissociation rate; koff) were derived from the direct measurements of each parameter from all the association and dissociation steps in the interferogram, and fitted to a horizontal line (mean) across all measurements. Data from each replicate run were pooled in the same manner to calculate the overall mean. For measuring RAGE binding kinetics to HMGB1, 15 μg/mL RAGE-Fc in PBS+0.1% BSA+0.02% Tween-20 was immobilized on the surface of anti-IgG biosensors (AHC, 18-5060) over 30″ and dipped in serial concentrations of each HMGB1 construct (60″ baseline, 200″ association/dissociation) and fitted in the same manner to derive kinetic parameters.

The target in assay [2] is T1, RAGE-Fc chimera protein (BioTechne, …). The assay is described as follows: hybrid ELISA: HMGB1 construct coated, RAGE-Fc titrated, anti-human IgG-HRP, OD450 normalized to DS-HMGB1; saturation fit (Kd cell: Invalid fit). The method, then: (§3) Nonspecific binding was blocked by incubation with 10% BSA in PBS for 2 h, at 20-25° C. A concentration range of RAGE-Fc chimera protein (BioTechne, 1145-RG; 0-640 nM in 1:4 dilutions) was added in 10% BSA/PBS and allowed to bind for 2 h, at 4° C. Bound FC chimera was detected by incubation with Anti-Human IgG HRP (Agilent Dako P021402-2) diluted 1:10000 in 1% BSA/PBS for 2 h, at 20-25° C. Between each of these 3 steps, the plate was washed with 100 μL PBST, three times.
(§4) OD 450 was measured as a readout (FluoStar OMEGA, BMG Labtech) and plotted as a saturation fit against 2× RAGE-Fc concentration (as the chimera is a RAGE dimer).
A general note: In an ELISA, binding on a coated surface is turned into a signal by an enzyme label.

The target is the same in assay [3]. In words: BLI: RAGE-Fc on AHC sensors, HMGB1 construct 0-25 µM in solution; kinetics plot. Here is the method: as §1, §2
In general terms: BLI is a label-free optical method that tracks binding on a fibre tip over time.

For assay [4] the target is unchanged. In words: BLI, RAGE-Fc on AHC sensors. Here is the method: as §2
For assay [5], the target named is T2, CXCL12 (CXC Ligand 12) (UniProt O62657 22-89).
T2 construct: mature; Untagged in BLI and NMR; CXCL12-His6 was used at 1 µM on the HMGB1 SPOT peptide arrays; also called CXCL12A-c021, wt 1-67, no tag; CXCL12-His6
In words: BLI, biotinylated HMGB1 construct on streptavidin sensor, CXCL12 0-150 µM in solution; kinetics rates derived from interferogram. Here is the method: as §2

Assay [6] concerns the target T2, CXCL12 (CXC Ligand 12). In words: BLI, biotinylated HMGB1 construct on streptavidin sensor, CXCL12 0-150 µM in solution; Michaelis-Menten (saturation) Req fit. The method, then: as §2
Assay [7] deals with T1, RAGE-Fc chimera protein (BioTechne, …). The assay is described as follows: hybrid ELISA: HMGB1 construct coated, RAGE-Fc titrated, anti-human IgG-HRP, OD450 normalized to DS-HMGB1; saturation fit. The method, then:
as §3, §4

Eleven molecules from patent US20230046828A1 (OXFORD UNIVERSITY INNOVATION, published 2023) can be followed below.

T1 sequence (Q15109 24-344, change not shown): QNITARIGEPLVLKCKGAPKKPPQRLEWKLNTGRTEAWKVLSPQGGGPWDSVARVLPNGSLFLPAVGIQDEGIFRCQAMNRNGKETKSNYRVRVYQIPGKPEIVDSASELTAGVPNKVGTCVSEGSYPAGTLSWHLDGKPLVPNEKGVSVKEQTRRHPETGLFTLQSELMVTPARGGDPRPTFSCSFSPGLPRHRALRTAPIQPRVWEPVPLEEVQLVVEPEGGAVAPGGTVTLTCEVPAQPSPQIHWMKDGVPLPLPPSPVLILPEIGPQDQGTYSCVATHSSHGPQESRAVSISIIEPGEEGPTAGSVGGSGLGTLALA
T2 sequence (P48061 22-89): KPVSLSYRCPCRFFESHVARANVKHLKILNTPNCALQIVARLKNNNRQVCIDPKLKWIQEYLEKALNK

B1: DS-HMGB1 1-164 (ligand)
chain: GKGDPKKPRGKMSSYAFFVQTCREEHKKKHPDASVNFSEFSKKCSERWKTMSAKEKGKFEDMAKADKARYEREMKTYIPPKGETKKKFKDPNAPKRPPSAFFLFCSEYRPKIKGEHPGLSIGDVAKKLGEMWNNTAADDKQPYEKKAAKLKEKYEKDIAAYRAK
modifications: oxidized Box A (disulfide Cys 22-Cys 44)
As for B1, binding in assay [1] was characterised by a dissociation constant (Kd) of 3100 nM. For the same molecule, the Bmax in assay [2] turned out to be 0.2 nM. Further, in assay [3], binding was characterised by a dissociation constant (Kd) of 900 nM; the koff (commonly the rate constant with which the complex falls apart) stood at 0.152 s⁻¹; the kon (in general, the second-order rate constant of association) came out at 178000 M⁻¹ s⁻¹.

B2: dBB12L (double Box B HMGB1 construct with 12-residue linker) (ligand)
chain: KDPNAPKRPPSAFFLFCSEYRPKIKGEHPGLSIGDVAKKLGEMWNNTAADDKQPYEKKAAKLKEKYEKDIAAYRAKGKPDAAKKGVKDPNAPKRPPSAFFLFCSEYRPKIKGEHPGLSIGDVAKKLGEMWNNTAADDKQPYEKKAAKLKEKYEKDIAAYRAKGKPDAAKKGV
notes: also called dBB12L-HMGB1; dBB-HMGB1
For the molecule B2, the Kd (usually the concentration at which binding is half-saturated) in assay [1] came to 5500 nM. Also, in assay [2], the Bmax came out at 0.06 nM. In assay [3], this molecule registered a Kd of 1300 nM, a koff of 0.206 s⁻¹ and a kon of 164000 M⁻¹ s⁻¹. In addition, in assay [4], the “fold association rate against FR-HMGB1” value turned out to be 3 fold and the “fold dissociation rate against FR-HMGB1” value was 5 fold.

B3: FR-HMGB1 Box A 1-88 (full HMG Box with flanking regions) (ligand)
chain: GKGDPKKPRGKMSSYAFFVQTCREEHKKKHPDASVNFSEFSKKCSERWKTMSAKEKGKFEDMAKADKARYEREMKTYIPPKGETKKKF
modifications: biotinylated in BLI
notes: also called extended box A 1-88; c037; not shown: biotinylation tag
As to B3, in the assay with CXCL12 (CXC Ligand 12) [5], the Kd was determined as 6.1 µM, the koff came out at 0.079 s⁻¹ and the kon is 13000 M⁻¹ s⁻¹. This molecule also returned a Kd with CXCL12 (CXC Ligand 12) [6] of 12.6 µM.

B4: DS Box A 1-88 (full HMG Box construct with flanking regions) (ligand)
chain: GKGDPKKPRGKMSSYAFFVQTCREEHKKKHPDASVNFSEFSKKCSERWKTMSAKEKGKFEDMAKADKARYEREMKTYIPPKGETKKKF
modifications: oxidized (disulfide Cys 22-Cys 44)
notes: also called oxidized Box A alone
With B4, the Kd in assay [1] is 53400 nM. Further, the Bmax in assay [2] turned out to be 0.08 nM. In assay [3], this molecule came in with a Kd of 15600 nM, a koff of 0.439 s⁻¹ and an on-rate constant (kon) of 28000 M⁻¹ s⁻¹.

B5: fully-reduced HMGB1, full-length (1-214) (ligand)
chain: GKGDPKKPRGKMSSYAFFVQTCREEHKKKHPDASVNFSEFSKKCSERWKTMSAKEKGKFEDMAKADKARYEREMKTYIPPKGETKKKFKDPNAPKRPPSAFFLFCSEYRPKIKGEHPGLSIGDVAKKLGEMWNNTAADDKQPYEKKAAKLKEKYEKDIAAYRAKGKPDAAKKGVVKAEKSKKKKEEEEDEEDEEDEEEEEDEEDEDEEEDDDDE
modifications: cysteines reduced (Cys 22, Cys 44, Cys 105)
notes: Tags differ by assay: biotinylated (c011) in BLI with CXCL12, His6-tagged in the reverse peptide array, TEV-cleaved in the RAGE ELISA and BLI; also called FR-HMGB1; FR FL-HMGB1 (c011)
In the case of B5, the Kd with CXCL12 (CXC Ligand 12) [5] worked out at 20.9 µM; in assay [1] it was 2300 nM; in assay [7], 86.1 nM; in assay [3], 800 nM; with CXCL12 (CXC Ligand 12) [6] it was 15.3 µM. Also, the koff with CXCL12 (CXC Ligand 12) [5] is 0.181 s⁻¹; in assay [3], 0.041 s⁻¹. Also, the figures for the kon (in the assay with CXCL12 (CXC Ligand 12) [5]; in assay [3]) were 9000 M⁻¹ s⁻¹ and 51000 M⁻¹ s⁻¹, respectively.

B6: disulfide HMGB1, full-length (ligand)
chain: GKGDPKKPRGKMSSYAFFVQTCREEHKKKHPDASVNFSEFSKKCSERWKTMSAKEKGKFEDMAKADKARYEREMKTYIPPKGETKKKFKDPNAPKRPPSAFFLFCSEYRPKIKGEHPGLSIGDVAKKLGEMWNNTAADDKQPYEKKAAKLKEKYEKDIAAYRAKGKPDAAKKGVVKAEKSKKKKEEEEDEEDEEDEEEEEDEEDEDEEEDDDDE
modifications: disulfide bond between Cys 22 and Cys 44
notes: also called DS-HMGB1; FL-DS-HMGB1
For the molecule B6, the Kd is 1300 nM in assay [1], 4.35 nM in assay [7], 200 nM in assay [3] and 200 to 1300 nM in assay [4]. The koff in assay [3] came out at 0.043 s⁻¹. For the same molecule, in assay [3], the kon was 215000 M⁻¹ s⁻¹.

B7: non-oxidizable 3S-HMGB1, full-length (1-214) (ligand)
chain: GKGDPKKPRGKMSSYAFFVQTSREEHKKKHPDASVNFSEFSKKSSERWKTMSAKEKGKFEDMAKADKARYEREMKTYIPPKGETKKKFKDPNAPKRPPSAFFLFSSEYRPKIKGEHPGLSIGDVAKKLGEMWNNTAADDKQPYEKKAAKLKEKYEKDIAAYRAKGKPDAAKKGVVKAEKSKKKKEEEEDEEDEEDEEEEEDEEDEDEEEDDDDE
notes: Biotinylated (c022) in BLI with CXCL12, His6-tagged in the reverse peptide array; also called 3S-FL HMGB1 (c022)
As for B7, the Kd turned out to be 11.7 µM with CXCL12 (CXC Ligand 12) [5]; 3000 nM in assay [1]; 7.22 nM in assay [7]; 900 nM in assay [3]; 8.79 µM with CXCL12 (CXC Ligand 12) [6]. For the same molecule, the koff with CXCL12 (CXC Ligand 12) [5] was found to be 0.145 s⁻¹; in assay [3] it was 0.015 s⁻¹. For the same molecule, the kon with CXCL12 (CXC Ligand 12) [5] is 12000 M⁻¹ s⁻¹; in assay [3], 17000 M⁻¹ s⁻¹.

B8: FR-HMGB1 Box B 94-162 (helical-only) (ligand)
chain: PKRPPSAFFLFCSEYRPKIKGEHPGLSIGDVAKKLGEMWNNTAADDKQPYEKKAAKLKEKYEKDIAAYR
modifications: also: biotin or His6 tag in some assays, sequence not given here
notes: also called HMGB1A-c028; not shown: C-terminal Avi / biotinylation tag (BLI, NMR) or His6 tag (reverse peptide array)
As to B8, in the assay with CXCL12 (CXC Ligand 12) [5], binding was characterised by a dissociation constant (Kd) of 39 µM, the koff is 0.64 s⁻¹ and the kon is 16000 M⁻¹ s⁻¹. The same molecule showed a Kd with CXCL12 (CXC Ligand 12) [6] of 65 µM.

B9: FR-HMGB1 Box A 8-78 (helical-only) (ligand)
chain: PRGKMSSYAFFVQTCREEHKKKHPDASVNFSEFSKKCSERWKTMSAKEKGKFEDMAKADKARYEREMKTYI
modifications: biotinylated in BLI
notes: also called minimal Box A 8-78; c027; not shown: biotinylation tag (BLI) or His6 tag (reverse peptide array)
Turning to B9, in the assay with CXCL12 (CXC Ligand 12) [5], binding was put at a Kd of 18.7 µM, the koff amounted to 0.312 s⁻¹ and the kon turned out to be 17000 M⁻¹ s⁻¹. This molecule showed a Kd in the assay with CXCL12 (CXC Ligand 12) [6] of 17.5 µM.

B10: FR-HMGB1 Box B 89-174 (full HMG Box with flanking regions) (ligand)
chain: SMKDPNAPKRPPSAFFLFCSEYRPKIKGEHPGLSIGDVAKKLGEMWNNTAADDKQPYEKKAAKLKEKYEKDIAAYRAKGKPDAAKKGV
modifications: biotinylated in BLI and NMR
notes: also called complete Box B; not shown: C-terminal biotinylation tag
In the assay with CXCL12 (CXC Ligand 12) [5], B10 gave a Kd of 7.1 µM, a koff of 0.159 s⁻¹ and a kon of 22000 M⁻¹ s⁻¹. Binding with CXCL12 (CXC Ligand 12) [6] was characterised by a dissociation constant (Kd) of 8.19 µM.

B11: DS-HMGB1 1-184 (ligand)
chain: GKGDPKKPRGKMSSYAFFVQTCREEHKKKHPDASVNFSEFSKKCSERWKTMSAKEKGKFEDMAKADKARYEREMKTYIPPKGETKKKFKDPNAPKRPPSAFFLFCSEYRPKIKGEHPGLSIGDVAKKLGEMWNNTAADDKQPYEKKAAKLKEKYEKDIAAYRAKGKPDAAKKGVVKAEKSKKKK
modifications: oxidized Box A (disulfide Cys 22-Cys 44)
On to B11, for which the figures for the Kd in assay [1], in assay [7] and in assay [3] were 500 nM, 33.9 nM and 200 nM, respectively. This molecule also displayed a koff in assay [3] of 0.067 s⁻¹. Further, the kon in assay [3] worked out at 349000 M⁻¹ s⁻¹.
